{
  "source": "patent US11976099B2",
  "about": "“Compositions and methods for treatment of bone associated diseases” (THE NATIONAL INSTITUTE FOR BIOTECHNOLOGY IN THE NEGEV LTD., priority 2016, dated 2024)",
  "molecules": {"B1": {"name": "M-CSFM: 158 amino acid M-CSF with cysteine at position 31 replaced by serine (SEQ ID NO: 2) (protein)", "chain": "EEVSEYCSHMIGSGHLQSLQRLIDSQMETSSQITFEFVDQEQLKDPVCYLKKAFLLVQDIMEDTMRFRDNTPNAIAIVQLQELSLRLKSCFTKDYEEHDKACVRTFYETPLQLLEKVKNVFNETKNLLDKDWNIFSKNCNNSFAECSSQGHERQSEGS"}, "B2": {"name": "M-CSFC31S,M27R: M-CSF double mutant containing both C31S and M27R; monomeric, monospecific c-FMS antagonist (protein)", "chain": "B1 chain with M27R"}, "B3": {"name": "M-CSFWT: wild-type human M-CSF, disulfide-bond-linked homodimer which binds and activates c-FMS (protein)", "chain": "B1 chain with S31C"}},
  "molecular_target": "T1, murine c-FMS (Mus musculus, UniProt P09581)",
  "T1 construct": "endogenous in cells; host or cells: primary bone marrow derived monocytes from wild-type C57BL6 mice",
  "T1 sequence (P09581 20-977)": "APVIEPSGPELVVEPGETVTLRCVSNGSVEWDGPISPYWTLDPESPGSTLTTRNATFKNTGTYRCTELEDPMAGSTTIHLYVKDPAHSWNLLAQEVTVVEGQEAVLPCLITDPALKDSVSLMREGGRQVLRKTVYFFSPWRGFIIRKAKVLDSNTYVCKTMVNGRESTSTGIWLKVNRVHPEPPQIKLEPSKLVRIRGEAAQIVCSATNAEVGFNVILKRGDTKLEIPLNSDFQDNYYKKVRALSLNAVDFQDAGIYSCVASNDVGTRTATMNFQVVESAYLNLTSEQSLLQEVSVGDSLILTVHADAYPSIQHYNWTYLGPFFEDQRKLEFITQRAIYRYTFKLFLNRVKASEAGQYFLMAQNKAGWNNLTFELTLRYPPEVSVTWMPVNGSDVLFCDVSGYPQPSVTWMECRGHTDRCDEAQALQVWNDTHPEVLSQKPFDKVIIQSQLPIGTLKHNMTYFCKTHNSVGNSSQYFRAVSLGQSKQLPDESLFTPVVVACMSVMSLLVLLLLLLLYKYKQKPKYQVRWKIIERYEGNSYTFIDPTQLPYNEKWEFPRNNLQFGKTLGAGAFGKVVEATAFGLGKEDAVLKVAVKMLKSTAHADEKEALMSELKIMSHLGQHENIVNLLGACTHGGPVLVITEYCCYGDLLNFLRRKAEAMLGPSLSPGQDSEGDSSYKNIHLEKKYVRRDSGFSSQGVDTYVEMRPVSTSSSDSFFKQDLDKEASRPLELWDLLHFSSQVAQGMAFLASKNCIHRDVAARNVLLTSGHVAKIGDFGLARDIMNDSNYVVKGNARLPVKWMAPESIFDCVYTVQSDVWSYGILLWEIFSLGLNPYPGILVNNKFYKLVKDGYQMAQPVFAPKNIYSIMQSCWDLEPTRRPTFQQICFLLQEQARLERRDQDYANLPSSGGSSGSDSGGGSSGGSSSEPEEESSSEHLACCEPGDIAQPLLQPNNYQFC",
  "experiment": "c-FMS phosphorylation assay in BMMs (western blot)",
  "assay_type": "cell-based",
  "conditions": "for c-FMS phosphorylation level: 0.5 nM murine M-CSFWT + 1 μM variant, versus control",
  "description": "Phosphorylation assay—The experiment was performed on two cell types, BMMs and human peripheral blood CD14^+ monocytes, as follows: (i) BMMs from wild-type C57BL6 mice were purified by flushing the bone marrow from the femur and tibia as previously described (Levaot, N., Simoncic, P. D., Dimitriou, I.D., Scoffer, A., La Rose, J., Ng, A. H. M. et al. (2011) J. Clin. Invest. 121, 3244-3257). The cells were treated with ACK red cells lysis buffer (ThermoFisher Scientific, USA) and grown in complete α-MEM growth medium (Sigma-Aldrich, USA) containing 10% fetal bovine serum (FBS) (selected to not contain LPS to prevent macrophage differentiation), penicillin, streptomycin and L-glutamine. Recombinant murine M-CSF was added at a concentration of 40 ng/ml (Peprotech, Israel) for three days at 37° C. to induce adhesion and proliferation of monocytes. Then, 7×10^5 cells were transferred into a 6-well plate with complete α-MEM and 20 ng/ml murine M-CSF and RANKL (R&D Systems, USA) for 48 h. (ii) CD 14^+ monocytes (Lonza, Switzerland) were grown in complete α-MEM medium for five days in the presence of human M-CSF (20 ng/mL). Then, 3.5×10^5 cells were transferred to a 24-well plate with complete α-MEM medium, […] human M-CSF (R&D Systems, USA) and 20 ng/ml murine RANKL for 72 h. At this point, the medium was replaced with a starvation medium (α-MEM without FBS) for 4 h. After starvation, the cells were washed with PBS and incubated in a starvation medium containing 0.5 nM murine (BMMs) or human (CD14+) M-CSF and 100 nM (CD14^+ cells) or 1 μM (BMMs) of either M-CSFC31S or M-CSFC31S,M27R for 1 min. To test the phosphorylation levels in the absence of murine M-CSFWT, we incubated 0.5, 5, 10, 50, 1000 and 5000 nM of M-CSFC31S or M-CSFC31S,M27R and 0.5,5.10 nM of human M-CSFWT with the cells. The positive control contained 0.5 nM murine (BMMs) or human (CD14^+) M-CSF, and the negative control was incubated in starvation medium without any added protein. The cells were transferred to ice, and lysis buffer (deoxycholate 0.5%, […], 10 mM NaPO4, 1 mM sodium orthovanadate, 5 mM EDTA, pH 7.4, 5 mM EGTA, pH 7.4, 100 mM NaCl, 2% Triton X-100) was added. […] The images were quantified using ImageJ. The quantified intensity values of the phosphorylated c-FMS for each sample were divided by the total c-FMS intensity, and then by the β-actin expression intensity. […]\nTo determine whether M-CSFC31S,M27R binds and also antagonizes c-FMS, the phosphorylation of the receptor following incubation with different M-CSF variants was evaluated. […] The cells were lysed, and the expression and phosphorylation levels of c-FMS were evaluated using western blot. C-FMS phosphorylation level was quantified and normalized. […]",
  "note": "Positions count from the first letter of the chain named. Names may count otherwise. “Also recorded” adds a separate entry of the source.",
  "data": [
    {"molecule": "B1", "values": [
      {"measurement": "c-FMS phosphorylation level", "setting": "BMMs", "result": "increased levels of phosphorylation"}
    ]},
    {"molecule": "B2", "values": [
      {"measurement": "c-FMS phosphorylation (agonist activity)", "setting": "0.5-5000 nM without murine M-CSF", "result": "very limited c-FMS phosphorylation at any concentration other than 5 μM; also recorded: did not exhibit phosphorylation capabilities in concentrations lower than 5 μM"},
      {"measurement": "c-FMS phosphorylation level", "setting": "BMMs", "result": "lower levels of phosphorylated c-FMS"}
    ]},
    {"molecule": "B3", "values": [
      {"measurement": "peak concentration of bell-shaped c-FMS phosphorylation curve", "setting": "BMMs, 1 minute, without murine M-CSF", "result": 5, "unit": "nM"}
    ]}
  ]
}
